Experimental data as given in PMC3612083, “Imaging Beads-Retained Prey Assay for Rapid and Quantitative Protein-Protein Interaction” (PLoS ONE, 2013).
Blank lines part the entries; values can stand above or below the binder they belong to. No end group written: not given here.

Tests used:
[1] = molecular target: T1, GST-GRIP Y2177A (Golgin245 GRIP Y2177A in pGEB) (UniProt Q13439 2168-2215, Y2177A); experiment: pull-down; imaging beads-retained prey (IBRP) assay: GST-bait on glutathione beads (16 µg/µl), HEK293 lysate with GFP-prey, 100 µM GMPPNP; 30 min at 4°C, washes with 300 mM NaCl, bead fluorescence imaged; GFP lysate as control; conditions: one partner purified
T1 construct: GRIP domain of Golgin245 with Y2177A; insert moved from the pEGFP-C2 construct by EcoRI/BamHI into pGEB; pGEB is a modified pGEX-KG vector; also called Y2177A mutant
T1 chain (looked up): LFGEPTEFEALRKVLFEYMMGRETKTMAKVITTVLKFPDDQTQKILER

GST-Arl1 = molecular target: T2, GST-Arl1 (UniProt P61212 1-181); experiment: pull-down; IBRP assay: GST-Arl1 on glutathione beads (13 µg/µl) loaded with GMPPNP, HEK293 lysate with GFP-prey; bead fluorescence imaged; conditions: one partner purified
T2 construct: Arl1; also called Arl1-GMPPNP; source: loaded with GMPPNP or GDP on the beads
T2 sequence (looked up): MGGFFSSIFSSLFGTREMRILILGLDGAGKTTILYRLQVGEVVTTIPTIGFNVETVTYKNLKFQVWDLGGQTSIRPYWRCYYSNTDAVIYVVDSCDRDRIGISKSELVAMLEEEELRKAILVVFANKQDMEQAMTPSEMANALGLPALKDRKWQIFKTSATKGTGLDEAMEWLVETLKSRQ

fold reduction of the interaction (IBRP affinity) against wild type GST-GRIP [1]: > 14 fold
B1: Arl1-GFP (wild type rat Arl1 in pEGFP-N1) (natural protein, UniProt P61212 1-181, looked up)
chain: MGGFFSSIFSSLFGTREMRILILGLDGAGKTTILYRLQVGEVVTTIPTIGFNVETVTYKNLKFQVWDLGGQTSIRPYWRCYYSNTDAVIYVVDSCDRDRIGISKSELVAMLEEEELRKAILVVFANKQDMEQAMTPSEMANALGLPALKDRKWQIFKTSATKGTGLDEAMEWLVETLKSRQ
notes: Arl1, ARF family small GTPase, rat, wild type; source: HEK293, transfected, in lysate

relative IBRP affinity with GMPPNP, fold of that with GDP (GST-Arl1): 3 fold
B2: GFP-GRIP (Golgin245 GRIP domain wild type in pEGFP-C2) (domain or fragment, UniProt Q13439 2168-2215, looked up)
chain: {GFP}-LFGEPTEFEYLRKVLFEYMMGRETKTMAKVITTVLKFPDDQTQKILER
notes: GRIP domain of Golgin245; source: HEK293, transfected, in lysate

fold reduction of relative IBRP affinity against wild type GRIP domain (GST-Arl1): ~80 fold
B3: GFP-GRIP (Y2177A) (Golgin245 GRIP domain Y2177A mutant in pEGFP-C2) (domain or fragment, UniProt Q13439 2168-2215, looked up)
chain: {GFP}-LFGEPTEFEALRKVLFEYMMGRETKTMAKVITTVLKFPDDQTQKILER
notes: GRIP domain of Golgin245 with Y2177A; source: HEK293, transfected, in lysate
